Laboratory results reported in the Human Domainome abundance scans (Beltran et al. 2025).
± gives the uncertainty stated by the source.

B1: Dynamin-binding protein, residues 242 to 304; numbered along this chain, Q6XZF7 (parent)
chain: EEPGTYGVALYRFQALEPNELDFEVGDKIRILATLEDGWLEGSLKGRTGIFPYRFVKLCPDTR

Variants of: B1
Assay: abundance fitness (aPCA) (normalised: wild type 0, dead -1); higher = more abundant; growth selection in yeast, the domain comes from the species named
Settings: Homo sapiens

| Variant | abundance fitness |
| --- | --- |
| EEPGTYGVALYRFQALEPNELDFEVGDKIRILATLEDGWLEGSLKGRTGIFPYRFVKLCPDTP [R63P] | 0.164 ± 0.089 |
| EEPGTYGVALYRFQALEPNELDFEVGDKIRILATLEDGWLEGSLKGRTGIFPYRFVKLCPDTM [R63M] | 0.049 ± 0.14 |
| EEPKTYGVALYRFQALEPNELDFEVGDKIRILATLEDGWLEGSLKGRTGIFPYRFVKLCPDTR [G4K] | -0.211 ± 0.15 |
| EEPYTYGVALYRFQALEPNELDFEVGDKIRILATLEDGWLEGSLKGRTGIFPYRFVKLCPDTR [G4Y] | -0.044 ± 0.059 |
| EEPGTYGVALYRFQALEPNELDFEVGDKIRIRATLEDGWLEGSLKGRTGIFPYRFVKLCPDTR [L32R] | -0.592 ± 0.077 |
| EEPGTYGVALYRFQALEPNELDFEVGDKIRIYATLEDGWLEGSLKGRTGIFPYRFVKLCPDTR [L32Y] | -0.744 ± 0.11 |
| EEPGTYGVALYRFQALEPNELDFEVGDKIRILATLEMGWLEGSLKGRTGIFPYRFVKLCPDTR [D37M] | -1.02 ± 0.34 |
| EEPGTYGVALYRFQALEPNELDFEVGDKIRILATLEFGWLEGSLKGRTGIFPYRFVKLCPDTR [D37F] | -0.56 ± 0.086 |
| EEPGTYGVALYRFQALEPNELDFEVGDKIRILATLEQGWLEGSLKGRTGIFPYRFVKLCPDTR [D37Q] | -0.298 ± 0.17 |
| EEPGTYGVALERFQALEPNELDFEVGDKIRILATLEDGWLEGSLKGRTGIFPYRFVKLCPDTR [Y11E] | -0.02 ± 0.1 |
| EEPGTYGVALCRFQALEPNELDFEVGDKIRILATLEDGWLEGSLKGRTGIFPYRFVKLCPDTR [Y11C] | -0.124 ± 0.061 |
| EEPGTYGVALTRFQALEPNELDFEVGDKIRILATLEDGWLEGSLKGRTGIFPYRFVKLCPDTR [Y11T] | 0.044 ± 0.06 |
| EEPGTYGVALYRFQALEPNELDFEVGDKIRILATLPDGWLEGSLKGRTGIFPYRFVKLCPDTR [E36P] | -0.171 ± 0.099 |
| EEPGTYGVALYRFQALEPNELDYEVGDKIRILATLEDGWLEGSLKGRTGIFPYRFVKLCPDTR [F23Y] | -0.688 ± 0.1 |
| EEPGTYGVALYRFQALEPNELDFEVGDKIRILATLEDGWMEGSLKGRTGIFPYRFVKLCPDTR [L40M] | -0.074 ± 0.12 |
| EEPGTYGVALYRFQALEPNELDFEVGDKIRILATLEDGWREGSLKGRTGIFPYRFVKLCPDTR [L40R] | -0.627 ± 0.08 |
| EEPGTYGVALYRFQALEPNELDFEVGDKIRILMTLEDGWLEGSLKGRTGIFPYRFVKLCPDTR [A33M] | -0.438 ± 0.24 |
| EEPGTYGVALYRRQALEPNELDFEVGDKIRILATLEDGWLEGSLKGRTGIFPYRFVKLCPDTR [F13R] | 0.11 ± 0.06 |
| EEPGTYGVALYRLQALEPNELDFEVGDKIRILATLEDGWLEGSLKGRTGIFPYRFVKLCPDTR [F13L] | -0.74 ± 0.11 |
| EEPGTYGVALYRMQALEPNELDFEVGDKIRILATLEDGWLEGSLKGRTGIFPYRFVKLCPDTR [F13M] | -0.072 ± 0.11 |
| EEPGTYGVALYRFQALEPNELDFEVGDKIRILALLEDGWLEGSLKGRTGIFPYRFVKLCPDTR [T34L] | -0.41 ± 0.071 |

| Variant | abundance fitness |
| --- | --- |
| EEPGTYGVALYRFQALEPNELDFEVGDKIRILADLEDGWLEGSLKGRTGIFPYRFVKLCPDTR [T34D] | -0.114 ± 0.052 |
| ERPGTYGVALYRFQALEPNELDFEVGDKIRILATLEDGWLEGSLKGRTGIFPYRFVKLCPDTR [E2R] | -0.321 ± 0.085 |
| EVPGTYGVALYRFQALEPNELDFEVGDKIRILATLEDGWLEGSLKGRTGIFPYRFVKLCPDTR [E2V] | -0.228 ± 0.058 |
| EEPGTGGVALYRFQALEPNELDFEVGDKIRILATLEDGWLEGSLKGRTGIFPYRFVKLCPDTR [Y6G] | -0.696 ± 0.079 |
| EEPGTIGVALYRFQALEPNELDFEVGDKIRILATLEDGWLEGSLKGRTGIFPYRFVKLCPDTR [Y6I] | -0.123 ± 0.053 |
| EEPGTYGVALYRFQALEPNELDFEVGDKIRILATLEDGWLEGSLKGRTGIFPYSFVKLCPDTR [R54S] | 0.046 ± 0.048 |
| EEPGTYGVALYRFQALEPNELDFEVGDKIPILATLEDGWLEGSLKGRTGIFPYRFVKLCPDTR [R30P] | -0.15 ± 0.17 |
| EEPGTYGVALYRFQALEPNELDFEVGDKINILATLEDGWLEGSLKGRTGIFPYRFVKLCPDTR [R30N] | -0.306 ± 0.069 |
| EEPGTYGVALYAFQALEPNELDFEVGDKIRILATLEDGWLEGSLKGRTGIFPYRFVKLCPDTR [R12A] | 0.177 ± 0.06 |
| EEPGTYGVALYNFQALEPNELDFEVGDKIRILATLEDGWLEGSLKGRTGIFPYRFVKLCPDTR [R12N] | 0.009 ± 0.062 |
| EEPGTYGVALYRFQHLEPNELDFEVGDKIRILATLEDGWLEGSLKGRTGIFPYRFVKLCPDTR [A15H] | -0.472 ± 0.13 |
| EEPGTYGVALYRFQALEPNELDFEVGDKIRILATLEDGWLGGSLKGRTGIFPYRFVKLCPDTR [E41G] | -0.76 ± 0.11 |
| EEPGTYGVALYRFQALEPNELDFEVGDKIRILATLEDGWLQGSLKGRTGIFPYRFVKLCPDTR [E41Q] | -0.064 ± 0.14 |
| EEPGTYGVALYRFQALEPNELEFEVGDKIRILATLEDGWLEGSLKGRTGIFPYRFVKLCPDTR [D22E] | 0.043 ± 0.11 |
| EEPGTYGVALYRFQALEPNELQFEVGDKIRILATLEDGWLEGSLKGRTGIFPYRFVKLCPDTR [D22Q] | 0.148 ± 0.11 |
| EEPGTYGVALYRFQALEPNELDFEVGDKIRILATLEDGWLEGSLKGRTGIFPSRFVKLCPDTR [Y53S] | 0.329 ± 0.044 |
| EEPGTYGVALYRFQALEPNELDFEVGDKIRILATLEDGWLEGSLKGRTCIFPYRFVKLCPDTR [G49C] | -0.422 ± 0.071 |
| EEPGTYGVALYRFQALEPNELDFEVGDKIRILATLEDGWLEGQLKGRTGIFPYRFVKLCPDTR [S43Q] | -0.133 ± 0.16 |
| EEPGTYGVALYRFQALEPNELDFEVGDKIRILATLEDGWLEGFLKGRTGIFPYRFVKLCPDTR [S43F] | -0.226 ± 0.068 |
| EEPGTYGVALYRFQALEPNELDFEVGDKIRILATLEDGWLEGELKGRTGIFPYRFVKLCPDTR [S43E] | 0.219 ± 0.14 |
| EEPGTYGVALYRFQALEPNELDFEVGDKIRILATLEDGWLEGSLKGRTGIFCYRFVKLCPDTR [P52C] | -0.7 ± 0.082 |
